In patent publication US20170319674A1:

Target: NY-ESO-1 αβTCR with murinized domain 3 in β-chain, paired with the human TCRα-chain (human)
Experiment: cell-based or functional assay

percentage of lysis (standard chromium release assay): 4 fold
Substance: H57-597 (antibody)
